Data: patent US20100291106A1 (Novartis, published 2010)
Changes are numbered by the printed parent chain. Read-outs that look alike come from different tables or passages of the source. Each block holds one binder with its values, some of them ahead of it.

Assays:
[1] = target: T1, cynomolgus complement C3b protein (cynomolgus monkey (Macaca fascicularis)); experiment: cell-based or functional assay
human C5 [2] = target: T2, human C5 (human, UniProt P01031 19-673; P01031 678-1676); experiment: Direct ELISA at 2 ug/ml C5, 200 nM Fab
T2 construct: Captured by an anti-C5 antibody in the ELISA

[3] = target: T1, cynomolgus complement C3b protein; experiment: solution equilibrium titration (SET), ECL detection, Fab
[4] = target: T1, cynomolgus complement C3b protein; experiment: SPR (Biacore), C3b captured by anti-C3d antibody, Fab as analyte
[5] = target: T3, human complement C3b protein (human, UniProt P01024 23-667; P01024 749-1663); experiment: cell-based or functional assay
[6] = target: T1, cynomolgus complement C3b protein; experiment: cell-based or functional assay; remark: listed apart in the source
human C3d [7] = target: T4, human C3d (human, UniProt P01024 1002-1303); experiment: cross reactivity, ELISA on C3d, anti-His detection
T4 construct: domain: C3d
Protocol: In order to determine whether the anti-C3b antibodies described herein can bind to complement pathway components iC3b and C3c, the following steps were performed: Directly add iC3b(complement Technologies A115), C3d (complement Technologies A117), or C3c (complement Technologies A116), at 2 μg/ml in Carbonate Buffer onto Coat Maxisorp plate Nunc (442404) at 100 μl per well. Seal plates and incubate at 4° C. overnight. Aspirate plates and wash 3 times with PBS/0.5% Tween 20. Block plates with Diluent (PBS, 4% BSA Fraction V (Fisher ICN16006980), 0.1% Tween 20 (Sigma P1379), 0.1% Triton X-100 (Sigma P234729)) and incubate for 2 h at room temperature or overnight at 4° C. Then wash plates once with PBS/0.5% Tween 20. Dilute Fabs at 100 nM and subsequent dilutions (or higher concentration if needed) in diluent and plate 100 μl per well. Incubate at room temperature for 1 h. Wash plates 3 times with PBS/0.5% Tween 20. Add 100 μl/well of anti-Histidine-HRP monoclonal detection antibody at 1:400 in diluent and incubate at room temperature for 1 h. Then wash 4 times with PBS/0.5% Tween 20. Add 100 μl of TMB substrate (Pierce 34028) and incubate at room temperature for up to 5 min. Add 50 μl of Stop solution (2N Sulfuric Acid) to each well and read plate at 450 nm and correct for plastic reading at 570 nm.

[8] = target: T3, human complement C3b protein; experiment: solution equilibrium titration (SET), ECL detection, Fab
[9] = target: T1, cynomolgus complement C3b protein; experiment: as above; remark: listed apart in the source
[10] = target: T3, human complement C3b protein; experiment: SPR (Biacore), C3b captured by anti-C3d antibody, Fab as analyte
[11] = target: T1, cynomolgus complement C3b protein; experiment: as above; remark: listed apart in the source
[12] = target: T3, human complement C3b protein; experiment: bead proximity assay, C3b-acceptor beads; competitor biotinylated fH
Protocol: (§1) For C3b-C3b and C3b-fP proximity, Fabs or IgGs respectively were pre-incubated with C3b-Acceptor beads (20 μg/ml) for 60 min at room temperature. C3b-Donor beads or fP-Donor beads (20 μg/ml) were then added, and the plate was incubated overnight at room temperature before reading. For C3b-fB and C3b-fH proximity, antibodies were pre-incubated with C3b-Acceptor beads (20 μg/ml) for 60 minutes at room temperature. Biotinylated fB(D24G/N260D) or fH were then added, and incubated for 60 minutes at room temperature. SA-Donor beads were then added (20 μg/ml) and the plate was incubated overnight at room temperature before reading. Plates were read on the BMG Pherastar (ex=680, em=520-620).

[13] = target: T3, human complement C3b protein; experiment: bead proximity assay, C3b-acceptor beads; competitor biotinylated fB(D24G/N260D)
Protocol: as §1

human C5 [14] = target: T2, human C5; experiment: cross reactivity, capture ELISA with anti-C5 capture antibody, anti-His detection
[15] = target: T3, human complement C3b protein; experiment: cell-based or functional assay; remark: listed apart in the source
[16] = target: T3, human complement C3b protein; experiment: ELISA, C3b or C3 captured by anti-C3d antibody
Protocol: The C3b antibodies were examined to determine whether they were selective for binding to C3b relative to the C3b precursor C3. Briefly, binding selectivity for C3b was determined by performing the following steps. Coat Maxisorp plate Nunc (442404) with anti-C3d rabbit monoclonal (abcam 17453) at 2 μg/ml in Carbonate Buffer at 100 μl/well. Seal plates and incubate at 4° C. overnight. Aspirate plates and wash 3 times with PBS/0.5% Tween 20. Block plates with Diluent (PBS, 4% BSA Fraction V (Fisher ICN16006980), 0.1% Tween 20 (Sigma P1379), 0.1% Triton X-100 (Sigma P234729)) and incubate for 2 h at room temperature or overnight at 4° C. Then wash plates once with PBS/0.5% Tween 20. Dilute purified C3b (complement technologies A114 lot 21) and C3 (complement technologies A113c) at 1 μg/ml in diluent and plate 100 μl per well. Incubate for 1 h at room temperature. Then wash 3 times with PBS/0.5% Tween 20.
Dilute Fabs at 100 nM and subsequent dilutions (or higher concentration) in diluent and plate 100 μl per well. Incubate at room temperature for 1 h. Wash plates 3 times with PBS/0.5% Tween 20. Add 100 μl/well of anti-Histidine-HRP monoclonal detection antibody at 1:400 in diluent and incubate at room temperature for 1 h. Then wash 4 times with PBS/0.5% Tween 20. Add 100 μl of TMB substrate (Pierce 34028) and incubate at room temperature for up to 5 min. Add 50 μl of Stop solution (2N Sulfuric Acid) to each well and read plate at 450 nm and correct for plastic reading at 570 nm.

human C3d [17] = target: T4, human C3d; experiment: C3d binding ELISA, IgG titrated from about 0.006 to 100 nM
[18] = target: T3, human complement C3b protein; experiment: SPR (Biacore T100), C3b captured by anti-C3d antibody, IgG as analyte, 1:1 model
[19] = target: T1, cynomolgus complement C3b protein; experiment: as above
[20] = target: T3, human complement C3b protein; experiment: AlphaScreen bead proximity, C3b-Acceptor beads pre-incubated with antibody, then biotinylated fH and SA-Donor beads; blocked ligand: fH [C]
Protocol: (§2) In brief, purified C3b and fP were conjugated to unconjugated acceptor or donor beads (PerkinElmer) using AminoLink Reductant (Pierce) during a 48 h incubation at room temperature. Beads were quenched using Carboxymethoxylamine Hemihydrochloride (Aldrich), and purified by centrifugation at 13000 rpm and three washes with 0.1M TBST. Purified fB(D24G/N260D) and fH were biotinylated during a 30 min incubation with 20-fold molar excess of NHS-Chromogenic-biotin (Pierce) at room temperature, and purified using Zeba 0.5 ml desalting columns (Pierce).
as §1

[21] = target: T3, human complement C3b protein; experiment: AlphaScreen bead proximity, C3b-Acceptor beads pre-incubated with antibody, then biotinylated fB(D24G/N260D) and SA-Donor beads; blocked ligand: fB [A]
Protocol: as §2, §1

[22] = target: T3, human complement C3b protein; experiment: AlphaScreen bead proximity, C3b-Acceptor beads pre-incubated with antibody, then C3b-Donor beads; inhibition of C3b-C3b dimer formation; unit from the axis [Antibody] nM [D]
Protocol: as §2, §1

T4 sequence (P01024 1002-1303 limits assumed): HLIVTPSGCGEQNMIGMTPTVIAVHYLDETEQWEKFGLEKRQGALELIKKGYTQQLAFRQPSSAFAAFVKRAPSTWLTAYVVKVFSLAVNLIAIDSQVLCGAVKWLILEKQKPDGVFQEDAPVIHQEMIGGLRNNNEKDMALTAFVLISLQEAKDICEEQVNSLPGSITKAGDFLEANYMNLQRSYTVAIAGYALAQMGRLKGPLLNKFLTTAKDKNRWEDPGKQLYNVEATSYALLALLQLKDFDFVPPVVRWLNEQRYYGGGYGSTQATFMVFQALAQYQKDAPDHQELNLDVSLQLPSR
T2 sequence (P01031 19-673 limits assumed, chain 1 of 2): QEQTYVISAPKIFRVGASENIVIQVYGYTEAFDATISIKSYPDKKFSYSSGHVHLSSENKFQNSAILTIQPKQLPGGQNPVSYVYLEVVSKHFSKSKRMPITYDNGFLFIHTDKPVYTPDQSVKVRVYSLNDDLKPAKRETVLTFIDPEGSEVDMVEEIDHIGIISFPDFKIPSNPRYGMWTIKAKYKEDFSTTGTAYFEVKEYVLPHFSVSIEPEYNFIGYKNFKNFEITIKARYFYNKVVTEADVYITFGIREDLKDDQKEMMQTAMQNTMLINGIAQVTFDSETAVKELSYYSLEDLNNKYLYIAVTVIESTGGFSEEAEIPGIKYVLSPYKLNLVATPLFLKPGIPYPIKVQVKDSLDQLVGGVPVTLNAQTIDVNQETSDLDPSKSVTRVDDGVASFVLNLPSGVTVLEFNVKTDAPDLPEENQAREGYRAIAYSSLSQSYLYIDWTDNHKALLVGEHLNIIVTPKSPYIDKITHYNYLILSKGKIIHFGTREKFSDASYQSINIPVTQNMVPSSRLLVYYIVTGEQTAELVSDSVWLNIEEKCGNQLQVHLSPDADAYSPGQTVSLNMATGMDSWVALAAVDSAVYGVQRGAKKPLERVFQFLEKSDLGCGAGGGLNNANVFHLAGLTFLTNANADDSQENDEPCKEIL
T2 sequence (P01031 678-1676 limits assumed, chain 2 of 2): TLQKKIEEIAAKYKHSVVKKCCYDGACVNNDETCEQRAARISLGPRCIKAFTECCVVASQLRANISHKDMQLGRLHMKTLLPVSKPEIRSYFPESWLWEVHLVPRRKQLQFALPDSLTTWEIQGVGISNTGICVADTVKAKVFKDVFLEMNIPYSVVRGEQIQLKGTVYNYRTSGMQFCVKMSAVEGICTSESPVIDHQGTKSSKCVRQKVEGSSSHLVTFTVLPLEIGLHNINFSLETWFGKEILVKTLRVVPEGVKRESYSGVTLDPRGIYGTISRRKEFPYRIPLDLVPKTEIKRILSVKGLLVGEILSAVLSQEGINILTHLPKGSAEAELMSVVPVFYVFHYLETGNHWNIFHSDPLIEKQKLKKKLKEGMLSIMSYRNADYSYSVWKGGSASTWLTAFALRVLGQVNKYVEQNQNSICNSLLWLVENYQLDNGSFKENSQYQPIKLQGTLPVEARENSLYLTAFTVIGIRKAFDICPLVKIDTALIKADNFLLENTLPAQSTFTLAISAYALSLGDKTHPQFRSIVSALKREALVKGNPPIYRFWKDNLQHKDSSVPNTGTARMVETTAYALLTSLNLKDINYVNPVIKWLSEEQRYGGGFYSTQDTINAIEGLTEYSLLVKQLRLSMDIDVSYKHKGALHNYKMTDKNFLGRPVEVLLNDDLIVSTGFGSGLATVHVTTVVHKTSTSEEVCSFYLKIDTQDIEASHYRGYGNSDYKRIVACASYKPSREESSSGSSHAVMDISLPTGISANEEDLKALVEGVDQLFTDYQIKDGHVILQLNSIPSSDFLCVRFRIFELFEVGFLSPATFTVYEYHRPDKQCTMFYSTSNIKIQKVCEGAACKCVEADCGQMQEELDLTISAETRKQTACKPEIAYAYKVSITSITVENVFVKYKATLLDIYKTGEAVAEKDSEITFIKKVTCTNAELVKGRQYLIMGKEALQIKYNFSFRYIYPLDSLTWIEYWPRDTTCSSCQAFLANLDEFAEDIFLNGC
T3 sequence (P01024 23-667 P314L, chain 1 of 2): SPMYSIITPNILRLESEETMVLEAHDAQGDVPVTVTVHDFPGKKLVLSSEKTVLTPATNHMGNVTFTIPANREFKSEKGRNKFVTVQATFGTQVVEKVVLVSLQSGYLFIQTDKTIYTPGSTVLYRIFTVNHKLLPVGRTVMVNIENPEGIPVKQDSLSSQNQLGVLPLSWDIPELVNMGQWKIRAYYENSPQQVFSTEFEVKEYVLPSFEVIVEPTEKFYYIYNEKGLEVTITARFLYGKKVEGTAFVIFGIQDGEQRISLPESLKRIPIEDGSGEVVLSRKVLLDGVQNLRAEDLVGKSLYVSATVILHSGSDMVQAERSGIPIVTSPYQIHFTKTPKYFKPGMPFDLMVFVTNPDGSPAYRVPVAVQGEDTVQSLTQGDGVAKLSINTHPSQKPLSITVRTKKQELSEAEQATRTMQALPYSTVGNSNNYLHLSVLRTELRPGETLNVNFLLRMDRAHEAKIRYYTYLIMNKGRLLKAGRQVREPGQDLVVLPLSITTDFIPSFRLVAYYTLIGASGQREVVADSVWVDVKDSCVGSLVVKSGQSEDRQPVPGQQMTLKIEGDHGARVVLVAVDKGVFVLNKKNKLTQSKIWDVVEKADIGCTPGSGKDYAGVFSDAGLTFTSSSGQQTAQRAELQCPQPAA
T3 sequence (P01024 749-1663, chain 2 of 2): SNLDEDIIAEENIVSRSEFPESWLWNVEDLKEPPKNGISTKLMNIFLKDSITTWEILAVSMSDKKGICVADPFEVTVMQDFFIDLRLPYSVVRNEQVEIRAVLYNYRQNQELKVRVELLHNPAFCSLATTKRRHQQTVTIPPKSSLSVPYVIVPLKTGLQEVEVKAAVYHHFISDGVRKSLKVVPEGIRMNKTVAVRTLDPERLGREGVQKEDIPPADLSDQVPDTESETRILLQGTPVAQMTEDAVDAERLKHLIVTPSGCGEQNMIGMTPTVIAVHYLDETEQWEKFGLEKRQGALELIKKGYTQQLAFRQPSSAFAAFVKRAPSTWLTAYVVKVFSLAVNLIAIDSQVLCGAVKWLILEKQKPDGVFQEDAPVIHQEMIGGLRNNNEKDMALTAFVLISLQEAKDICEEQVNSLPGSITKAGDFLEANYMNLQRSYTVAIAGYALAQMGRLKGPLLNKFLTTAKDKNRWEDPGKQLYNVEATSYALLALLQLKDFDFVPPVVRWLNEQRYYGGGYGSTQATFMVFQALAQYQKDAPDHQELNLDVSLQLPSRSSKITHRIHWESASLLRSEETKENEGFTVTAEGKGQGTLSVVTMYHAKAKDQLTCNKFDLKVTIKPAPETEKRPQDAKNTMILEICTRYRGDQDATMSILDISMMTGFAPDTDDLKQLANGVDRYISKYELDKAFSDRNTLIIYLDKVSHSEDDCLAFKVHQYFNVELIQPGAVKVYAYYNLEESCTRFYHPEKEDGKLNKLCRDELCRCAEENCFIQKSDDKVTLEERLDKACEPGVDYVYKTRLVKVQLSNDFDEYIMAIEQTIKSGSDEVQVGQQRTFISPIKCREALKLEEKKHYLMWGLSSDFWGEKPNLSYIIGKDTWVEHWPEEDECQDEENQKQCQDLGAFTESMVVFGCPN

B2: MOR09124 Fab (Fab, V domains shown)
VH: QVQLVESGGGLVQPGGSLRLSCAASGFTFSSYWMTWVRQAPGKGLEWVSSIKIKPDGYAASVKGRFTISRDNSKNTLYLQMNSLRAEDTAVYYCARLFYQYFARMDYWGQGTLVTVSS
VL: DIQMTQSPSSLSASVGDRVTITCRASQDISNYLNWYQQKPGKAPKLLIYAASNLQSGVPSRFSGSGSGTDFTLTISSLQPEDFATYYCQQYDSYSPTFGQGTKVEIKR
notes: HCDR2-matured derivative of parental MOR08305
C3b Dep (nM), human serum, IC50 [5]: 16 nM
HA (nM), 10% human serum, IC50 [5]: 44 nM
MAC Dep (nM), human serum, IC50 [5]: 1 nM
C3b Dep (nM), cyno serum, IC50 [6]: 73 nM
HA (nM), 10% cyno serum, IC50 [6]: 101 nM
MAC Dep (nM), cyno serum, IC50 [6]: 5 nM
binding result (human C3d [7]): no binding
Kd [8]: 0.001 nM
Kd [9]: 0.021 nM
Kd [10]: 0.007 nM
Kd [11]: 0.033 nM
IC50 [12]: 1 nM
IC50 [13]: 3 nM
binding result (human C5 [14]): no binding

B3: MOR09612 IgG (antibody, V domains shown)
VH: B2 VH with Q1E
VL: B2 VL with Y91W, Y94F
notes: Germlined human IgG1 with leucines 234 and 235 changed to alanines, kappa; also called antibody 9612
MAC deposition on zymosan, IC50 [15]: ≤ 5 nM
hemolysis of rabbit red blood cells, 10% human or cynomolgus serum, IC50 [15]: ≤ 50 nM
inhibition of C3a and C5a generation during hemolysis, IC50 [15]: ≤ 50 nM
fold binding selectivity for C3b over C3 [16]: > 1000 fold
binding result (human C3d [17]): no binding (tested: 100 nM)
Kd [18]: 0.00179 nM
koff [18]: 9.04e-06 s⁻¹
kon [18]: 5.05e+06 M⁻¹ s⁻¹
Kd [19]: 0.0253 nM
koff [19]: 8.67e-05 s⁻¹
kon [19]: 3.43e+06 M⁻¹ s⁻¹
IC50 (read off the curve) [20]: ~0.04 nM
IC50 (read off the curve) [21]: ~0.05 nM
EC50 [22]: 340 nM

Second part, led by results:

C3b Dep (nM), cyno serum, IC50 [1]: 70 nM
HA (nM), 10% cyno serum, IC50 [1]: 78 nM
MAC Dep (nM), cyno serum, IC50 [1]: 17 nM
binding result (human C5 [2]): no binding (tested: 200 nM)
Kd [3]: 0.09 nM
Kd [4]: 0.119 nM
B1: MOR9674 Fab format (Fab, V domains shown)
VH: EVQLVQSGAEVKKPGASVKVSCKASGYTFTSYSMHWVRQAPGQGLEWMGLINPYNGNTHYAQKFQGRVTMTRDTSISTAYMELSSLRSEDTAVYYCARMLRFDVWGQGTLVTVSS
VL: ESALTQPASVSGSPGQSITISCTGTSSDGGGYNYVSWYQQHPGKAPKLMIYGVSNRPSGVSNRFSGSKSGNTASLTISGLQAEDEADYYCQTYTRYSDSPVFGGGTKLTVLG

MAC deposition on zymosan, IC50 [15]: ≤ 5 nM
fold binding selectivity for C3b over C3 [16]: > 1000 fold
binding result (human C3d [17]): no binding (tested: 100 nM)
Kd [18]: 0.000435 nM
koff [18]: 3.1e-06 s⁻¹
kon [18]: 7.13e+06 M⁻¹ s⁻¹
Kd [19]: 0.0183 nM
koff [19]: 0.000128 s⁻¹
kon [19]: 6.97e+06 M⁻¹ s⁻¹
IC50 (read off the curve) [20]: ~0.04 nM
IC50 (read off the curve) [21]: ~0.05 nM
EC50 [22]: 605 nM
B4: MOR09611 IgG (antibody, V domains shown)
VH: B2 VH with Q1E
VL: B2 VL with Y91H, S93T, Y94F, S95R
notes: Germlined human IgG1 with leucines 234 and 235 changed to alanines, kappa; also called antibody 9611
hemolysis of rabbit red blood cells, 10% human or cynomolgus serum, IC50 [15]: ≤ 50 nM
inhibition of C3a and C5a generation during hemolysis, IC50 [15]: ≤ 50 nM

C3b Dep (nM), human serum, IC50 [5]: 14 nM
HA (nM), 10% human serum, IC50 [5]: 48 nM
MAC Dep (nM), human serum, IC50 [5]: 1 nM
C3b Dep (nM), cyno serum, IC50 [6]: 66 nM
HA (nM), 10% cyno serum, IC50 [6]: 83 nM
MAC Dep (nM), cyno serum, IC50 [6]: 4 nM
binding result (human C3d [7]): no binding
Kd [8]: 0.1 nM
Kd [9]: 0.34 nM
Kd [10]: 0.075 nM
Kd [11]: 0.486 nM
IC50 [12]: 0.08 nM
IC50 [13]: 0.2 nM
binding result (human C5 [14]): no binding
B5: MOR09423 Fab (Fab, V domains shown)
VH: QVQLVQSGAEVKKPGASVKVSCKASGYTFTGYYINWVRQAPGQGLEWMGIISPNQGTTGYAQKFQGRVTMTRDTSISTAYMELSSLRSEDTAVYYCARGNYDHLDYWGQGTLVTVSS
VL: DIQMTQSPSSLSASVGDRVTITCRASQGISNYLNWYQQKPGKAPKLLIYDASTLQSGVPSRFSGSGSGTDFTLTISSLQPEDFATYYCQQDWHTLPVTFGQGTKVEIKR
notes: also called Fab 9423
